These results are taken from article PMC9517163.

The target of the experiment is minke whale ACE2, mFc-tagged (minke whale). Briefly: SPR. In general terms: In SPR one partner is held on a chip, and binding of the other changes the refractive index at the surface.

For the substance “SARS-CoV-2 receptor-binding domain (RBD), prototype (from UniProt P0DTC2) (domain or fragment)”, the Kd (usually a measure of binding affinity in units of concentration) was 156 nM.
